Substitutions are numbered along the chain they refer to. Numbers in names are those of the source.
Legend:
[1] = molecular target: T1, Human GPA33 (Novoprotein), recombinant protein immobilized on CM5 chips (human, UniProt Q99795 22-235); experiment: SPR (Biacore T100), GPA33 recombinant protein immobilized on CM5 chip, antibody flowed over
T1 construct: also called GPA33 recombinant protein; Human Glycoprotein A33
T1 sequence: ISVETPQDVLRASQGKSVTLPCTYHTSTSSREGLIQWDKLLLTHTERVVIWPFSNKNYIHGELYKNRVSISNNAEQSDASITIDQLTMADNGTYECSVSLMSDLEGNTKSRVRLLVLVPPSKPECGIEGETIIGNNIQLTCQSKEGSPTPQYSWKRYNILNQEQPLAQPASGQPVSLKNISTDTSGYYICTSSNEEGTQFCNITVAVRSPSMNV

[2] = molecular target: T1, Human GPA33 (Novoprotein), recombinant …; experiment: SPR (Biacore T100), GPA33 immobilized on CM5 chip, antibody flowed, 1:1 model; parental huA33 IgG, not the bispecific
Procedure: (§1) SPR analysis. Human GPA33 (Novoprotein, Summit, N.J.) was immobilized on CM5 chips. Five concentrations of 2-fold serially diluted huA33 IgG1 or huA33-BsAbs (starting at 20 nM) were flowed over the chip using a Biacore™ T100 system (GE Healthcare, Chicago, Ill.). Binding kinetics of huA33 were measured at 25° C. and binding kinetics of huA33-BsAbs were measured at both 25° C. and 37° C. The sensorgrams were fitted with 1:1 binding model for both to derive kinetic parameters.

[3] = molecular target: T1, Human GPA33 (Novoprotein), recombinant …; experiment: SPR (Biacore T100), GPA33 recombinant protein immobilized on CM5 chip, IgG1 flowed over, 25 °C, 1:1 binding model
Procedure: as §1

[4] = molecular target: T1, Human GPA33 (Novoprotein), recombinant …; experiment: SPR, parental huA33-BsAb, the reference of the column
[5] = molecular target: T1, Human GPA33 (Novoprotein), recombinant …; experiment: SPR, GPA33 immobilized on CM5 chip, parental huA33-BsAb; temperature not given for this table; the KD column head prints no unit
Procedure: as §1

[6] = molecular target: T2, GPA33 on the surface of human colon and gastric cancer cell lines (human, UniProt Q99795 22-319); experiment: cell-based or functional assay
T2 sequence (looked up): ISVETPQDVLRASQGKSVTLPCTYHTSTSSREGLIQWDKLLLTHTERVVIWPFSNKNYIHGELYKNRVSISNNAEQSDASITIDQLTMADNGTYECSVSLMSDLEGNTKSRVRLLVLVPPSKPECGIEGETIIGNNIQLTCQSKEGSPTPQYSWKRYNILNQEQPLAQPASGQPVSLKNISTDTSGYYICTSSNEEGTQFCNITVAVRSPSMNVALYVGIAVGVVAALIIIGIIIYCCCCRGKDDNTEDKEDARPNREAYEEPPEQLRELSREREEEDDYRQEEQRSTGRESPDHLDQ

[7] = molecular target: T1, Human GPA33 (Novoprotein), recombinant …; experiment: SPR (Biacore T100), human GPA33 immobilized on CM5 chip, huA33-BsAb flowed over, 37 °C, 1:1 binding model; the KD column head prints no unit, M follows from the ka and kd units [contd.) C]
Procedure: as §1

[8] = molecular target: T2, GPA33 on the surface of human colon and …; experiment: FACS staining of SW1222 colon cancer cells with titrated huA33-BsAb, geometric mean MFI [contd.) D]
[9] = molecular target: T1, Human GPA33 (Novoprotein), recombinant …; experiment: SPR (Biacore T100), human GPA33 immobilized on CM5 chip, huA33-BsAb flowed over, 25 °C, 1:1 binding model; the KD column head prints no unit, M follows from the ka and kd units [contd.) C]
Procedure: as §1

[10] = molecular target: T1, Human GPA33 (Novoprotein), recombinant …; experiment: SPR (Biacore T100), human GPA33 immobilized on CM5 chip, huA33-BsAb flowed over, 25 °C, 1:1 binding model [contd.) C]
Procedure: as §1

[11] = molecular target: T1, Human GPA33 (Novoprotein), recombinant …; experiment: SPR (Biacore T100), human GPA33 immobilized on CM5 chip, huA33-BsAb flowed over, 37 °C, 1:1 binding model [contd.) C]
Procedure: as §1

[12] = molecular target: T1, Human GPA33 (Novoprotein), recombinant …; experiment: SPR (Biacore T100), GPA33 immobilized on CM5 chip, antibody flowed, 1:1 model; measured at 25 C and 37 C; bispecific huA33-BsAb; GPA33 immobilized on CM5 chip; apparent affinity (avidity)
Procedure: as §1

[13] = molecular target: T1, Human GPA33 (Novoprotein), recombinant …; experiment: SPR, GPA33 immobilized on CM5 chip, clone in huA33-BsAb format; temperature not given for this table; the KD column head prints no unit
[14] = molecular target: T1, Human GPA33 (Novoprotein), recombinant …; experiment: SPR, KD of the parental huA33-BsAb over KD of the clone
Procedure: as §1

B1: huA33-IgG1 (H2L2) (antibody, V domains shown)
VH: EVQLVESGGGLVKPGGSLRLSCAASGFAFSTYDMSWVRQAPGKRLEWVATISSGGSYTYYLDSVKGRFTISRDNAKNSLYLQMNSLRAEDTAVYYCAPTTVVPFAYWGQGTLVTVSS
VL: DIQMTQSQSSLSTSVGDRVTITCKASQNVRTVVAWYQQKPGKSPKTLIYLASNRHTGVPSRFSGSGSGTEFTLTISNVQPEDFADYFCLQHWSYPLTFGSGTKLEIKR
notes: Humanized A33 IgG1, version H2L2; also called 3A3-H2L2; 3A3-H2/L2
B1 was tested, and the Kd [1] was 0.169 nM, the koff [1] was 0.000363 s⁻¹ and the kon [1] was 2.15e+06 M⁻¹ s⁻¹. For the same binder, the Kd [2] was 0.13 nM, the Kd [3] was 0.169 nM and the koff [3] was 0.000363 s⁻¹. The kon [3] was 2.15e+06 M⁻¹ s⁻¹.

B2: chimeric chA33-IgG1 (antibody, V domains shown)
VH: EVKLVESGGGLVKPGGSLKLSCAASGFAFSTYDMSWVRQTPEKRLEWVATISSGGSYTYYLDSVKGRFTISRDSARNTLYLQMSSLRSEDTALYYCAPTTVVPFAYWGQGTLVTVSA
VL: DIVMTQSQKFMSTSVGDRVSITCKASQNVRTVVAWYQQKPGQSPKTLIYLASNRHTGVPDRFTGSGSGTDFTLTISNVQSEDLADYFCLQHWSYPLTFGSGTKLEVKR
notes: Chimeric antibody with murine A33 variable domains and a human IgG1 constant region; also called chimeric A33; 3A3-chA33
With B2 the Kd [3] was 0.31 nM, the koff [3] was 0.000628 s⁻¹ and the kon [3] was 2.03e+06 M⁻¹ s⁻¹.

B3: huA33-BsAb (bispecific antibody, human IgG1, kappa, N297A)
heavy: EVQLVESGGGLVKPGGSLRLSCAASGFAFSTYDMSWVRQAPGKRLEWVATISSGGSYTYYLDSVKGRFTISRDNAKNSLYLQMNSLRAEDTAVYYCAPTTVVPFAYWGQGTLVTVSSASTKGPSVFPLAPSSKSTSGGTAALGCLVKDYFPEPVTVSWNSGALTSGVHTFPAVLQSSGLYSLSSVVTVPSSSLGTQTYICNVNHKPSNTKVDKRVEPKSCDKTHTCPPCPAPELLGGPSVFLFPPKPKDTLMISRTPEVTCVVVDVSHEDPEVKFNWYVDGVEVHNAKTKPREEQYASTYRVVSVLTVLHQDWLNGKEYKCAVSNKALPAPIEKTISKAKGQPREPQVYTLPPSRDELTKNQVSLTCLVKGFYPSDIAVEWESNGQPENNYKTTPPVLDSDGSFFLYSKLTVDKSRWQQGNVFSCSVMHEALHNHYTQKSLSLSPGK
light: DIQMTQSQSSLSTSVGDRVTITCKASQNVRTVVAWYQQKPGKSPKTLIYLASNRHTGVPSRFSGSGSGTEFTLTISNVQPEDFADYFCLQHWSYPLTFGSGTKLEIKRTVAAPSVFIFPPSDEQLKSGTASVVCLLNNFYPREAKVQWKVDNALQSGNSQESVTEQDSKDSTYSLSSTLTLSKADYEKHKVYACEVTHQGLSSPVTKSFNRGECTSGGGGSGGGGSGGGGSQVQLVQSGGGVVQPGRSLRLSCKASGYTFTRYTMHWVRQAPGKCLEWIGYINPSRGYTNYNQKFKDRFTISRDNSKNTAFLQMDSLRPEDTGVYFCARYYDDHYSLDYWGQGTPVTVSSGGGGSGGGGSGGGGSGGGGSGGGGSGGGGSDIQMTQSPSSLSASVGDRVTITCSASSSVSYMNWYQQTPGKAPKRWIYDTSKLASGVPSRFSGSGSGTDYTFTISSLQPEDIATYYCQQWSSNPFTFGCGTKLQITR
notes: huA33 (H2L2) IgG1 with the humanized OKT3 scFv fused to the C-terminus of the light chain via a (G4S)3 linker; also called T-cell engaging huA33-BsAb; humanized A33-bispecific antibody
For B3, the “Fold difference/Parental” value [4] was 1 fold, the Kd [5] was 0.168 nM and the “EC50 of T-cell dependent cytotoxicity against Colo205 cells (sorted fresh CD4 memory T cells, E:T=5:1, 48 hours, LDH assay)” value [6] was 0.025 nM. For the same binder, the Kd [7] was 0.245 nM, the “EC50 (read off the curve)” value [8] was roughly 0.3 µg and the Kd [9] was 0.212 nM. For the same binder, the koff [10] was 0.000478 s⁻¹, the kon [10] was 2.25e+06 M⁻¹ s⁻¹ and the koff [11] was 0.00167 s⁻¹. For the same binder, the kon [11] was 6.81e+06 M⁻¹ s⁻¹ and the Kd [12] was roughly 0.2 nM.

B4: affinity-matured clone 57 in huA33-BsAb format (bispecific antibody, human IgG1, kappa, N297A)
heavy: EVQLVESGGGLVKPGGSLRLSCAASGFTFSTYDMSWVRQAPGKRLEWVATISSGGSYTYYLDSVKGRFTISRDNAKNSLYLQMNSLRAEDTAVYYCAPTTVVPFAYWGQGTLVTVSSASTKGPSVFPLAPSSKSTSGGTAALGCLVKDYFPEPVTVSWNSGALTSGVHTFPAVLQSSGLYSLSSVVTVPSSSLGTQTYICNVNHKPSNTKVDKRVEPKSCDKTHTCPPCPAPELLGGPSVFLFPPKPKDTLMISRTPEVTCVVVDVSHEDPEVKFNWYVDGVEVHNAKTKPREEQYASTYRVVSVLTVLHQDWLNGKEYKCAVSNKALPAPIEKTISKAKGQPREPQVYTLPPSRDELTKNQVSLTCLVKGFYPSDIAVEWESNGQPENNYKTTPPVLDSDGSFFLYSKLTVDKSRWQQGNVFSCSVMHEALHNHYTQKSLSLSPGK
light: B3 light with R18S, F83V, H91Y
For B4, the Kd [13] was 0.0156 nM and the “Fold difference/Parental” value [14] was 10.7 fold.

B5: affinity-matured clone 48 in huA33-BsAb format (bispecific antibody, human IgG1, kappa, N297A)
heavy: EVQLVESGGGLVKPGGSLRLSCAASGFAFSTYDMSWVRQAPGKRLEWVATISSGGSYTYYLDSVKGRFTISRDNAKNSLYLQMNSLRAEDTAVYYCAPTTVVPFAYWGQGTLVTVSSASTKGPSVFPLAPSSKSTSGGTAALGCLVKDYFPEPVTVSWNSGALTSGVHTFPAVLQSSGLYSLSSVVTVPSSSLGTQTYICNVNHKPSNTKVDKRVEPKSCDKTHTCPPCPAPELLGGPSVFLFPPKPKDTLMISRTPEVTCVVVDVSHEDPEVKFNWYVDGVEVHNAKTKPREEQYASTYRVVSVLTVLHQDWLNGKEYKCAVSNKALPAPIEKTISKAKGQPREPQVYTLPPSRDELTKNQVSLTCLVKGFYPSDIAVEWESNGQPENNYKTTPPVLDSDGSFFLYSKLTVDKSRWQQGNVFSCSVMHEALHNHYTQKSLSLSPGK
light: B3 light with N53D, H91Y
In the case of B5, the Kd [13] is reported as 0.00329 nM and the “Fold difference/Parental” value [14] is reported as 51 fold.

B6: affinity-matured clone 49 in huA33-BsAb format (bispecific antibody, human IgG1, kappa, N297A)
heavy: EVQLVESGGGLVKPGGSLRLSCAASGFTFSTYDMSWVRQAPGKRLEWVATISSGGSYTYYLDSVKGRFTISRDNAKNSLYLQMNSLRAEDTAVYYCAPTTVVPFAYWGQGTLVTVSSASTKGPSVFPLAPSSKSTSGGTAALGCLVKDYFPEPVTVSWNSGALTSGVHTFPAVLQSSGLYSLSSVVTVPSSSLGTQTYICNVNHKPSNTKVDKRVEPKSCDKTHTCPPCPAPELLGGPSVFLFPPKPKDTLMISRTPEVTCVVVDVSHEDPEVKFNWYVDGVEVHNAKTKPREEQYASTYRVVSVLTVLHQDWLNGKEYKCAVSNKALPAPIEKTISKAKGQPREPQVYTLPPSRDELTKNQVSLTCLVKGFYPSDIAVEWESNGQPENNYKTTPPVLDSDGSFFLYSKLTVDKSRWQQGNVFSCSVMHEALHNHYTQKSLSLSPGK
light: B3 light with V32L
In the case of B6, the Kd [13] is reported as 0.022 nM and the “Fold difference/Parental” value [14] is reported as 7.6 fold.

B7: affinity-matured clone 53 in huA33-BsAb format (bispecific antibody, human IgG1, kappa, N297A)
heavy: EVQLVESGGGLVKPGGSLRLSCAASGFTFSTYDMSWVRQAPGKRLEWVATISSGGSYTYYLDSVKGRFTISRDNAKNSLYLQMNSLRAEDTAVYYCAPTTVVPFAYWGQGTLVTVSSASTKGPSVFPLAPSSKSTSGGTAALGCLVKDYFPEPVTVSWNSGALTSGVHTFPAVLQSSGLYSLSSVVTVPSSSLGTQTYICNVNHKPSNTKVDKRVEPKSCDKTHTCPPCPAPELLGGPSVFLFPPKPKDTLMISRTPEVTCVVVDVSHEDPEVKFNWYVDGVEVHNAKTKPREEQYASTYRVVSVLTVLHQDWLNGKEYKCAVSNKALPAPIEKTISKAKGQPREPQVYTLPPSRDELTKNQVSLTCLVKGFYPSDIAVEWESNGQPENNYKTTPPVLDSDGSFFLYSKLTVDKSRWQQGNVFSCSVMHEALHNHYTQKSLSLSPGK
light: B3 light with H91Y
For B7, the Kd [13] was 0.0175 nM and the “Fold difference/Parental” value [14] was 9.6 fold.

B8: affinity-matured clone 56 in huA33-BsAb format (bispecific antibody, human IgG1, kappa, N297A)
heavy: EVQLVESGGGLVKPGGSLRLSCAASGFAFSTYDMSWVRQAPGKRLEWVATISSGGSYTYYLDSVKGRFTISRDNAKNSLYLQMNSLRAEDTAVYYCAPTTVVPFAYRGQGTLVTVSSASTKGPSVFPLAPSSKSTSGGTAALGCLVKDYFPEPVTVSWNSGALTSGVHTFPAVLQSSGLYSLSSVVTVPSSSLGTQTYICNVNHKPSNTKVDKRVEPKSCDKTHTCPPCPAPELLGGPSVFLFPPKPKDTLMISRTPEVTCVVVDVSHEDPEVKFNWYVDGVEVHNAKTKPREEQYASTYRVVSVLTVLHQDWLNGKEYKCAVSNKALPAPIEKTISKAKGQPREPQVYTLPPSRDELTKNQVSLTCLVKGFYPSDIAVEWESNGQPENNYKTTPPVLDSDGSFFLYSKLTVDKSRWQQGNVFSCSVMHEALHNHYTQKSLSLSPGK
light: B3 light with V32L, H91Y
With B8 the Kd [13] was 0.0243 nM and the “Fold difference/Parental” value [14] was 6.9 fold.

B9: affinity-matured clone 32 in huA33-BsAb format (bispecific antibody, human IgG1, kappa, N297A)
heavy: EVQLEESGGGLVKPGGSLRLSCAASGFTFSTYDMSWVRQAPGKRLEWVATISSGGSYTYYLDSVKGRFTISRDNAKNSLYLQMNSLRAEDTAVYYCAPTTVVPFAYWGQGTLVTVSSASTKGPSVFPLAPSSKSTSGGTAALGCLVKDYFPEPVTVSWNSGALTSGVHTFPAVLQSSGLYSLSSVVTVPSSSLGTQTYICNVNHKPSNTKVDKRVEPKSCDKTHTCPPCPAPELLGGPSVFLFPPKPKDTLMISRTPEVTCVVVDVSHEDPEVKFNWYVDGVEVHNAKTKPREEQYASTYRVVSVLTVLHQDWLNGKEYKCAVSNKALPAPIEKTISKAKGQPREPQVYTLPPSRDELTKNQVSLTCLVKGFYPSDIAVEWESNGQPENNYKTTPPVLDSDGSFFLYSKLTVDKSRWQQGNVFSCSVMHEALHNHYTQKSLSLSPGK
light: B3 light with H91Y
B9 was tested, and the Kd [13] was 0.00564 nM and the “Fold difference/Parental” value [14] was 29.7 fold.

B10: affinity-matured clone 31 in huA33-BsAb format (bispecific antibody, human IgG1, kappa, N297A)
heavy: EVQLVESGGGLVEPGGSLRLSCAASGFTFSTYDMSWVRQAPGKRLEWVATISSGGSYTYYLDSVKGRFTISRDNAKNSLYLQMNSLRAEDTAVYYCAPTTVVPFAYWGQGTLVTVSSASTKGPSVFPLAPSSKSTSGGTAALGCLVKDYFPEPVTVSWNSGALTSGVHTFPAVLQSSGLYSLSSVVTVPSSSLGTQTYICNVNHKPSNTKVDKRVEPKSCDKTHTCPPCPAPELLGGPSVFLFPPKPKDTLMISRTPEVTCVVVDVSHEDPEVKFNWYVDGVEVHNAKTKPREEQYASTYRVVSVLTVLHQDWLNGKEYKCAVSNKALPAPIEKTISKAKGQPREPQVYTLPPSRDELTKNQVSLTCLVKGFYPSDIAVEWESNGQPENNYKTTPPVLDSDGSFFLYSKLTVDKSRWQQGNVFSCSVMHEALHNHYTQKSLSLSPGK
light: B3 light
For B10, the Kd [13] was 0.0387 nM and the “Fold difference/Parental” value [14] was 4.3 fold.

— patent US20200291112A1 (Memorial Sloan Kettering, published 2020)
